Entries after “also recorded” stand apart in the source; their conditions may differ.
Assays:
Type in all cases: cell-based
MNC [1] = test: MSC production by the kind of TGFβ receptor inhibitor (Example 4); details: 10 μM SB431542, 0.5 μM A-83-01 or 0.5 μM LDN-193189 in medium for seeding; Vitronectin (20-398 aa) coating; day 12 (FIG. 7)
Procedure: MNC (Lonza) was thawed using the following medium for seeding (1), (2) or (3). The above-mentioned cells were seeded at a concentration of 2.6×10^6 cells/well in a 24-well plate coated with Vitronectin (20-398 aa) (wako) at a concentration of 1.5 μg/cm^2, and cultured under the conditions of 37° C., 5% CO2. The next day of seeding, the entire amount of the medium in the plate was replaced with a medium for seeding (1), (2) or (3), and the medium for seeding (1), (2) or (3) in an amount corresponding to 20% of the amount of the medium in the plate was further added on day 3 and day 5 after seeding. Medium for seeding (1): StemFit (registered trade mark) AKO3N medium (Ajinomoto Co., Inc.) SOLUTION A, ¼ StemFit (registered trade mark) AKO3N medium (Ajinomoto Co., Inc.) SOLUTION B, 3 ng/mL bFGF (peprotech), 10 μM SB431542 (Stemgent), 1/100 Lipid Concentrate (Life Technologies), 10 nM Dexamethasone (Sigma-Aldrich), 10 ng/mL PDGF-BB (FUJIFILM Wako Pure Chemical Industries, Ltd.), 1 mM Lithium Chloride (Sigma-Aldrich)
(§1) Medium for seeding (2): StemFit (registered trade mark) AKO3N medium (Ajinomoto Co., Inc.) SOLUTION A, ¼ StemFit (registered trade mark) AKO3N medium (Ajinomoto Co., Inc.) SOLUTION B, 3 ng/mL bFGF (peprotech), 0.5 μM A-83-01 (wako), 1/100 Lipid Concentrate (Life Technologies), 10 nM Dexamethasone (Sigma-Aldrich), 10 ng/mL PDGF-BB (FUJIFILM Wako Pure Chemical Industries, Ltd.), 1 mM Lithium Chloride (Sigma-Aldrich)
as §1, with “for seeding (3): StemFit (registered” for “for seeding (2): StemFit (registered”, “0.5 μM LDN-193189 (Stemgent), 1/100 Lipid” for “0.5 μM A-83-01 (wako), 1/100 Lipid”, “Chloride (Sigma-Aldrich) […]” for “Chloride (Sigma-Aldrich)”
After confirming that the cells became sub-confluent, the cells were passaged on day 12 after seeding, and the number of cells was measured.

MNC [2] = test: MSC production from MNC by the kind of Vitronectin (Example 2); details: coating 1.5 μg/cm^2, 2.6×10^6 cells/well, 13 days after MNC seeding (FIG. 4)
Procedure: MNC (Lonza) was thawed using the following medium for seeding (serum-free). The above-mentioned cells were seeded at a concentration of 2.6×10^6 cells/well in 24-well plates coated with Vitronectin (20-398 aa) (wako) (corresponding to amino acid Nos. 1-379 of SEQ ID NO: 1), Vitronectin (VTN-N, 62-478 aa) (Life Technologies) (corresponding to amino acid Nos. 43-459 of SEQ ID NO: 1) or Vitronectin (Full length, 20-478 aa) (Sigma) (corresponding to SEQ ID NO: 1) at a concentration of 1.5 μg/cm^2, and cultured under the conditions of 37° C., 5% CO2. In addition, the cells were seeded at a concentration of 1.6×10^6 cells/well in a 24-well plate coated with Vitronectin (20-398 aa) (wako) or Synthemax II (CORNING) at concentrations of 1.5 μg/cm^2 and 5.0 μg/cm^2, respectively, and cultured under the conditions of 37° C., 5% CO2. Synthemax II is a vitronectin-based synthetic peptide containing RGD motif and flanking sequence. The next day of seeding, the entire amount of the medium in the plate was replaced with a medium for seeding, and the medium for seeding in an amount corresponding to 20% of the amount of the medium in the plate was further added on day 3 and day 5 after seeding. […]
After confirming that the cells became sub-confluent, the cells were passaged on days 12 and 13 after seeding, and the number of cells was measured.

[3] = system: bone marrow mononuclear cells (MNC); test: Formation of MSC cell aggregates from MNC seeded on coated plates in serum-free medium (Example 1); details: plate coated at 1.5 μg/cm^2 at MNC seeding, day 5 after seeding, compared with Fibronectin coating
Procedure: (§2) Due to the limitations of purification techniques, bone marrow mononuclear cells (MNC) separated from bone marrow are slightly contained with mesenchymal stem cells (MSC). In this Example, a method for producing MSC from MNC by using a serum-free medium is verified. Bone marrow mononuclear cells (MNC) (Lonza) were thawed using the following medium for seeding. The above-mentioned cells were seeded at a concentration of 2.6×10^6 cells/well in a 24-well plate coated with Fibronectin (Sigma) or Vitronectin (wako) each at a concentration of 1.5 μg/cm^2, and cultured under the conditions of 37° C., 5% CO2. The next day of seeding, the entire amount of the medium in the plate was replaced with a medium for seeding, and the medium for seeding in an amount corresponding to 20% of the amount of the medium in the plate was further added on day 3 and day 5 after seeding. Medium for seeding: StemFit (registered trade mark) AKO3N medium (Ajinomoto Co., Inc.) SOLUTION A, StemFit (registered trade mark) AKO3N medium (Ajinomoto Co., Inc.) SOLUTION B, 3 ng/mL bFGF (peprotech), 10 μM 5B431542 (Stemgent), 1/100 Lipid Concentrate (Life Technologies), 10 nM Dexamethasone (Sigma-Aldrich), 10 ng/mL PDGF-BB (FUJIFILM Wako Pure Chemical Industries, Ltd.), 1 mM Lithium Chloride (Sigma-Aldrich)

[4] = system: bone marrow mononuclear cells (MNC); test: Number of cells after re-seeding of dissociated aggregates (Example 1); details: coating at MNC seeding 1.5 μg/cm^2, aggregates re-seeded day 7, counted day 13, compared with Fibronectin coating
Procedure: as §2, with “Medium for seeding: StemFit (registered trade mark) AKO3N medium (Ajinomoto Co., Inc.) SOLUTION A, StemFit (registered trade mark) AKO3N medium (Ajinomoto Co., Inc.) SOLUTION B, 3 ng/mL bFGF (peprotech), 10 μM 5B431542 (Stemgent), 1/100 Lipid Concentrate (Life Technologies), 10 nM Dexamethasone (Sigma-Aldrich), 10 ng/mL PDGF-BB (FUJIFILM Wako Pure Chemical Industries, Ltd.), 1 mM Lithium Chloride (Sigma-Aldrich)” left out
After confirming that the cells became sub-confluent, the cells were passaged on day 13 after seeding, and the number of cells was measured.

Cc1cccc(-c2nn(C(=S)Nc3ccccc3)cc2-c2ccnc3ccccc23)n1 [A-83-01]
MSC production from MNC (number of MSC) (MNC [1]): MSC could be efficiently produced from MNC

c1ccc2c(-c3cnn4cc(-c5ccc(N6CCNCC6)cc5)cnc34)ccnc2c1 [LDN-193189]
MSC production from MNC (number of MSC) (MNC [1]): MSC could be efficiently produced from MNC

NC(=O)c1ccc(-c2nc(-c3ccc4c(c3)OCO4)c(-c3ccccn3)[nH]2)cc1 [SB431542]
MSC production from MNC (number of MSC) (MNC [1]): MSC could be efficiently produced from MNC

B1: Vitronectin (20-398 aa) (wako): commercially available partial peptide of vitronectin, corresponding to amino acid Nos. 1-379 of SEQ ID NO: 1 (protein, listed as Homo sapiens)
chain: DQESCKGRCTEGFNVDKKCQCDELCSYYQSCCTDYTAECKPQVTRGDVFTMPEDEYTVYDDGEEKNNATVHEQVGGPSLTSDLQAQSKGNPEQTPVLKPEEEAPAPEVGASKPEGIDSRPETLHPGRPQPPAEEELCSGKPFDAFTDLKNGSLFAFRGQYCYELDEKAVRPGYPKLIRDVWGIEGPIDAAFTRINCQGKTYLFKGSQYWRFEDGVLDPDYPRNISDGFDGIPDNVDAALALPAHSYSGRERVYFFKGKQYWEYQFQHQPSQEECEGSSLSAVFEHFAMMQRDSWEDIFELLFWGRTSAGTRQPQFISRDWHGVPGQVDAAMAGRIYISGMAPRPSLAKKQRFRHRNRKGYRSQRGHSRGRNQNSRRPSR
MSC production from MNC (number of MSC) (MNC [2]): could produce MSC most efficiently from MNC

B2: Vitronectin: Vitronectin (wako) used to coat 24-well plates at 1.5 μg/cm^2 in Example 1 (protein, UniProt P04004 20-478, looked up)
Vitronectin: DQESCKGRCTEGFNVDKKCQCDELCSYYQSCCTDYTAECKPQVTRGDVFTMPEDEYTVYDDGEEKNNATVHEQVGGPSLTSDLQAQSKGNPEQTPVLKPEEEAPAPEVGASKPEGIDSRPETLHPGRPQPPAEEELCSGKPFDAFTDLKNGSLFAFRGQYCYELDEKAVRPGYPKLIRDVWGIEGPIDAAFTRINCQGKTYLFKGSQYWRFEDGVLDPDYPRNISDGFDGIPDNVDAALALPAHSYSGRERVYFFKGKQYWEYQFQHQPSQEECEGSSLSAVFEHFAMMQRDSWEDIFELLFWGRTSAGTRQPQFISRDWHGVPGQVDAAMAGRIYISGMAPRPSLAKKQRFRHRNRKGYRSQRGHSRGRNQNSRRPSRATWLSLFSSEESNLGANNYDDYRMDWLVPATCEPIQSVFFFSGDKYYRVNLRTRRVDTVDPPYPRSIAQYWLGCPAPGHL
number of cell aggregates obtained [3]: More cell aggregates were formed; also recorded: larger | number of cells obtained by the subsequent re-seeding [4]: larger | number of cells obtained by the subsequent re-seeding ([4]; listed as vitronectin): remarkably higher

From US12516294B2, “Method for producing mesenchymal stem cells from living body-derived cell sample containing mesenchymal stem cells” (AJINOMOTO CO., INC., priority 2019, dated 2026)
